Data on 1 substance can be found in patent US8716556.

This series addresses MYB96 (Arabidopsis thaliana) (UniProt Q24JK1). The series is described as follows: cell_activity. As to conditions: GUS reporter activation in Arabidopsis protoplasts.
UniProt Q24JK1, sequence (Q24JK1 whole entry): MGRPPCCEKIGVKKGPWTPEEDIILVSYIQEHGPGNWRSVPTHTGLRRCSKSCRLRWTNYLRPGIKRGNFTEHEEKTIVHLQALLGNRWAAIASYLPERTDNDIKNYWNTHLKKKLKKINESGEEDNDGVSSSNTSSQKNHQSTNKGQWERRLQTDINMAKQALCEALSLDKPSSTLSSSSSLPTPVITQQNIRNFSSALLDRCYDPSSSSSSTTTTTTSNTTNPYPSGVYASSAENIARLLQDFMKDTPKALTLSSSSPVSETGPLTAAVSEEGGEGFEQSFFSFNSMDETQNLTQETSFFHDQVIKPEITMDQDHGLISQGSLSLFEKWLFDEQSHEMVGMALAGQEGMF

Substance KCS1-BS in pKCS-P reporter returned an activity greater than 6 fold.
